Assay results from the supplement of paper PMC9732359.
± gives the uncertainty stated by the source.

Assay: protein stability index of a GFP-peptide fusion (yeast GPS) (PSI 1-4); higher = more stable; sorted into four equal gates, so the index is relative within each strain
Outline: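 Tiled 17-residue peptides from yeast proteins were fused downstream of GFP on a plasmid that also expresses Cherry, and the pooled library was carried in yeast. Mid-log cultures grown in leucine-free medium were sorted into four equal gates by GFP/Cherry fluorescence ratio. Plasmids from each gate were PCR-amplified and Illumina-sequenced, and reads were assigned to strains by barcodes. Each peptide's protein stability index is the sum, over gates, of the gate's read frequency multiplied by its gate number.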

Sequence | protein stability index (doa10∆) | protein stability index (pdr5∆) | protein stability index (san1∆) | protein stability index (ubr1∆)
LKKSEEIINNKTSSQTS [YMR153W/NUP53] | 3.08 ± 0.12 | 3.4 ± 0.15 | 3.03 ± 0.13 | 3.19 ± 0.069
VNLSQEALQYDPQPFLK [SNU114] | 2.99 ± 0.056 | 2.84 ± 0.061 | 2.97 ± 0.044 | 3 ± 0.046
VLRRLLAKYRDAGKIDK [RPL19A] | 3.29 ± 0.18 | 3.37 ± 0.15 |  | 3.61 ± 0.093
CPNSTGAELRSVCTEAG [RPT1] | 1.54 ± 0.053 | 1.56 ± 0.058 | 1.65 ± 0.098 | 1.55 ± 0.047
LLFAINSYQPSPFFVLD [SMC1] | 2.16 ± 0.06 | 2 ± 0.078 | 2.23 ± 0.082 | 2.57 ± 0.044
GSVELSTGDYTFTIQLL [YML103C/NUP188] | 2.05 ± 0.084 | 2.41 ± 0.072 | 1.89 ± 0.11 | 2.17 ± 0.051
TPLFHALAEGHGDAAVL [NAS6] |  | 3.1 ± 0.1 | 3.07 ± 0.091 | 2.61 ± 0.12
QALDAVRMRLAQLTHSL [MED8] | 1.58 ± 0.04 | 1.58 ± 0.047 | 1.54 ± 0.065 | 1.5 ± 0.035
EKVSSVLSALEGKSVDE [RPP2A] | 2.57 ± 0.077 | 2.09 ± 0.049 | 2.16 ± 0.078 | 1.87 ± 0.038
FFDPKPFDQNLDSNNNN [SWI1] | 2.98 ± 0.085 | 2.83 ± 0.092 | 3.14 ± 0.048 | 2.88 ± 0.069
DKDRDTRRKRRQGRSNR [SNF5] | 3.6 ± 0.23 | 3.48 ± 0.16 | 3.31 ± 0.096 | 3.55 ± 0.14
MKTNVHTQANEPNSAKK [RGR1] | 3.02 ± 0.11 | 3.14 ± 0.089 | 3.06 ± 0.086 | 3.24 ± 0.11
GTGNNSAVKRLLHVAVS [RPN2] | 2.19 ± 0.24 | 2.51 ± 0.25 |  | 1.58 ± 0.15
VTVSIKSRIVKVVGPRG [RPL9A] | 2.08 ± 0.051 | 2.63 ± 0.048 | 2.47 ± 0.052 | 2.75 ± 0.032
QTGTKPVLKKKAAFLGS [COR1] | 2.99 ± 0.064 | 3.14 ± 0.085 | 3.04 ± 0.076 | 3.16 ± 0.058
EEALNFDISMADLSSSE [SSN2] | 2.85 ± 0.06 | 2.95 ± 0.053 | 3.05 ± 0.07 | 2.6 ± 0.049
AIKYRPTSVKLLKTTVP [POP3] | 2.23 ± 0.037 | 2.3 ± 0.039 | 2.31 ± 0.057 | 2.14 ± 0.033
PVEKVQRIAKNDPEYMD [DLS1] | 2.75 ± 0.27 | 3.29 ± 0.14 | 3.17 ± 0.12 | 3.31 ± 0.087
AHTAGRYANKRFRKAQC [RPS5] | 2.29 ± 0.22 | 2.92 ± 0.18 |  | 
LFVGTDRQLHEISTSKK [RPN14] | 2.91 ± 0.07 | 2.91 ± 0.076 | 2.9 ± 0.092 | 2.7 ± 0.092
KIYDAFPQTAMLRRHAA [DIS3] | 2.41 ± 0.086 | 2.71 ± 0.079 | 2.58 ± 0.12 | 2.4 ± 0.061
KNIKIIMATNRLDILDP [RPT6] | 2.91 ± 0.14 | 2.55 ± 0.079 | 2.41 ± 0.068 | 3.3 ± 0.058
KEEQPKQIIVTRKAMLD [PRP8] | 2.62 ± 0.078 | 3.09 ± 0.082 | 2.71 ± 0.068 | 2.61 ± 0.049
QTHPDTGISQKSMSILN [HTB1] | 3.04 ± 0.056 | 3.01 ± 0.069 | 3.11 ± 0.06 | 2.72 ± 0.068
KNYSRPSTAIHTSPHQP [SIR4] | 2.86 ± 0.045 | 2.72 ± 0.044 | 2.65 ± 0.053 | 2.72 ± 0.044
LAKKTHKQELQDLILDL [SMC4] | 3.07 ± 0.083 | 3.25 ± 0.088 | 3.14 ± 0.055 | 3.05 ± 0.067

Sequence | protein stability index (doa10∆) | protein stability index (pdr5∆) | protein stability index (san1∆) | protein stability index (ubr1∆)
HLLYPPHIIAVACLFIT [SSN8] | 1.26 ± 0.053 | 1.27 ± 0.038 | 1.32 ± 0.1 | 1.34 ± 0.052
AFKSVVSTETFEQPSQR [RPL27A] | 2.88 ± 0.062 | 2.82 ± 0.059 | 2.71 ± 0.053 | 3.11 ± 0.067
MPNSSLQPFYSQPTAAG [DSN1] | 2.33 ± 0.076 | 2.71 ± 0.067 | 2.44 ± 0.056 | 2.78 ± 0.064
PAPSKPVIDYELKEITS [BRR2] | 3.15 ± 0.079 | 3.2 ± 0.081 | 2.97 ± 0.068 | 3.1 ± 0.07
PRLLGPQLSKAGKFPTP [RPL1A] | 2.86 ± 0.066 | 2.8 ± 0.057 | 2.74 ± 0.052 | 2.64 ± 0.035
PKATSSAGAVFKSSVEM [YOR098C/NUP1] | 2.89 ± 0.12 | 1.86 ± 0.11 | 2.69 ± 0.1 | 2.45 ± 0.047
VDKGAIMKNKDFILSLL [YJL039C/NUP192] | 2 ± 0.17 | 1.81 ± 0.096 | 1.95 ± 0.11 | 1.96 ± 0.069
GCVDIDDALHAKKLPNG [DIS3] | 3.26 ± 0.059 | 3.23 ± 0.051 | 3.14 ± 0.04 | 3.14 ± 0.037
QDVQRTCILHGPVAAQF [FAS1] | 2.12 ± 0.078 | 2.54 ± 0.057 | 2.02 ± 0.08 | 2.44 ± 0.044
SRRFKNGFQTGSAKATS [RPL37B] | 3.13 ± 0.078 | 3.12 ± 0.087 | 3.37 ± 0.096 | 3.17 ± 0.059
VKNVKNSDLEFNTFWDE [ARP9] | 3.08 ± 0.088 | 3.13 ± 0.14 | 3.53 ± 0.11 | 3.46 ± 0.084
SKESWRYDWYQPSKVSS [RTT102] | 2.09 ± 0.097 | 2.33 ± 0.098 | 1.94 ± 0.074 | 1.96 ± 0.036
VNLDNTAVGKAAVVKTS [RPT5] | 3.16 ± 0.064 | 3.12 ± 0.057 | 3.28 ± 0.041 | 3.05 ± 0.039
EFIRCGCLIKNLPRTKA [RMP1] | 2.17 ± 0.087 | 2.82 ± 0.1 | 2.3 ± 0.11 | 2.53 ± 0.077
ITLFVLVSVVEAFIASG [FAS2] | 1.53 ± 0.048 | 1.41 ± 0.043 | 2.06 ± 0.061 | 1.8 ± 0.051
NFENDNENNSNGGEDTS [REC8] | 2.93 ± 0.2 | 2.64 ± 0.27 | 2.65 ± 0.16 | 2.81 ± 0.16
VDSTFQKVSENFEAVFE [SMC3] | 3.32 ± 0.088 | 3.38 ± 0.081 | 3.42 ± 0.063 | 3.09 ± 0.048
TERHIQVGDGLEILIVT [PRE7] | 2.05 ± 0.067 | 1.97 ± 0.07 | 2.63 ± 0.11 | 3.12 ± 0.065
LKWKKGIRGKLVTIEGA [SMC1] |  | 3.31 ± 0.24 | 3.31 ± 0.12 | 
AMEKYLLSKSKIGEEDY [MTW1] | 2.35 ± 0.085 | 2.73 ± 0.083 | 2.6 ± 0.1 | 2.73 ± 0.042
EAAAKEKDELDNIEVSK [QCR7] | 3.18 ± 0.098 | 3.41 ± 0.079 | 3.29 ± 0.084 | 3.22 ± 0.055
VILGDANSSTIRVTNSF [RPN8] | 3.01 ± 0.092 | 2.94 ± 0.072 | 2.89 ± 0.066 | 3.06 ± 0.052
PTIEEDLTRVYKAISAQ [FAS2] | 2.22 ± 0.051 | 2.21 ± 0.041 | 2.75 ± 0.056 | 2.32 ± 0.042
GATSKPAFSFGAKPEEK [YJL041W/NSP1] | 3.05 ± 0.098 | 3.4 ± 0.092 | 3.31 ± 0.074 | 3.11 ± 0.073
ILDCVVTNSMRQTLAPY [YJR042W/NUP85] | 2.29 ± 0.064 | 2.84 ± 0.052 | 2.53 ± 0.05 | 2.6 ± 0.048
